Source: publication PMC7596997
Each block holds one substance with its values, some of them ahead of it.

Assays:
[1] = molecular target: cytosolic domain of yeast Tom70 (His-Tom70_(38–617)) (yeast (Saccharomyces cerevisiae)) (UniProt P07213); experiment: pull-down; purified His-Tom70cd (50 pmol per 100 μl) pre-bound to Ni-NTA beads, incubated 40 min at 30 °C with typically 7% (v/v) reticulocyte lysate containing the [35S]-labelled protein; 10 mM MOPS/KOH, 20 mM imidazole, 150 mM KCl, 1% BSA, pH 7.2; eluted with 1 M imidazole, SDS-PAGE, phosphorimager; in some samples the bead-bound Tom70cd was pretreated with NEM and washed before the lysate was added
[2] = molecular target: Tom70cd pretreated with N-ethylmaleimide (NEM) (yeast (Saccharomyces cerevisiae)) (UniProt P07213); experiment: as above
[3] = molecular target: Tom70 in the outer membrane of isolated yeast mitochondria (wild type) (S. cerevisiae (endogenous in isolated yeast mitochondria)) (UniProt P07213)
Sequence of Tom70 in the outer membrane of isolated yeast mitochondria (wild type) (S. cerevisiae (endogenous in isolated yeast mitochondria)) (P07213 whole entry): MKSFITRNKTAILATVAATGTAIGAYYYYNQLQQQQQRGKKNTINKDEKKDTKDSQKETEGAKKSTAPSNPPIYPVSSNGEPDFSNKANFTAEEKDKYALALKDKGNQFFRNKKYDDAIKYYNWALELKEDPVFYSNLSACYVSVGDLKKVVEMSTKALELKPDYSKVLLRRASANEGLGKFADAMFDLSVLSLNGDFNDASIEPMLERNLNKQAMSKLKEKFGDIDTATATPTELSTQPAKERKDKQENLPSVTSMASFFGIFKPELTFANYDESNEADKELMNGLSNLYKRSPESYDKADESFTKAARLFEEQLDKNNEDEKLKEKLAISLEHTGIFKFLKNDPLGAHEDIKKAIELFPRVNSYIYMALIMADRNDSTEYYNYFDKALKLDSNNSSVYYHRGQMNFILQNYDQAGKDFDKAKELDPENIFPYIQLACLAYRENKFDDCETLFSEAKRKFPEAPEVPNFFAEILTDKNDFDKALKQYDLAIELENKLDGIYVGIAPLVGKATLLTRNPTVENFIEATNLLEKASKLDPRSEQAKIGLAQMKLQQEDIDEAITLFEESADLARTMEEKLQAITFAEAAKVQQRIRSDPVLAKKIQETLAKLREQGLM

Sequence of cytosolic domain of yeast Tom70 (His-Tom70_(38–617)) (yeast (Saccharomyces cerevisiae)) (P07213 38-617): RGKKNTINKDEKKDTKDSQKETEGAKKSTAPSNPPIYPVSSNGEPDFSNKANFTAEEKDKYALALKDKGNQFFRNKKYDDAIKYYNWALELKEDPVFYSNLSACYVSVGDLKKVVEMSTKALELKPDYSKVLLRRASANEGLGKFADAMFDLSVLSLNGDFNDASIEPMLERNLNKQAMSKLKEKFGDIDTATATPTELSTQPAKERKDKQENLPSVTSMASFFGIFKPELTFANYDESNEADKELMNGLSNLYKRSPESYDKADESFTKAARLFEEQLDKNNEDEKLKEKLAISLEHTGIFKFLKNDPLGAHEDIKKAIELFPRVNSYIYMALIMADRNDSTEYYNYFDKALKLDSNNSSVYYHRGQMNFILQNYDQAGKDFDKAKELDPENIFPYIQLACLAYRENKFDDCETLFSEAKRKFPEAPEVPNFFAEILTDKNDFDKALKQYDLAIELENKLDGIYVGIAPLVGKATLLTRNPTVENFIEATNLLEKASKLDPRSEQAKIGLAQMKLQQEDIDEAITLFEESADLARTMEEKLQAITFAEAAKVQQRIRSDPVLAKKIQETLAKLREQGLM
Sequence of AAC_(Δpos) (AAC with all positively charged residues of the matrix loops exchanged against glycine) (P02723 whole entry, stated change not applied): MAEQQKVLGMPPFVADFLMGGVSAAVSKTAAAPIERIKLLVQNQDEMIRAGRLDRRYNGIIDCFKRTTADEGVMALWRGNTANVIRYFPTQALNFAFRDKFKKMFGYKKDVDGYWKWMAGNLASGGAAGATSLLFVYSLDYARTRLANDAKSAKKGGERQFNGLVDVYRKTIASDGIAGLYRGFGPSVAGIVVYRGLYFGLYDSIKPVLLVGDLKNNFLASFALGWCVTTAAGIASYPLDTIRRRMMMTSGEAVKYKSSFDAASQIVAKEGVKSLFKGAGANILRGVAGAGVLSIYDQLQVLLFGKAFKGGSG
Sequence of S. cerevisiae AAC2 (P18239 whole entry): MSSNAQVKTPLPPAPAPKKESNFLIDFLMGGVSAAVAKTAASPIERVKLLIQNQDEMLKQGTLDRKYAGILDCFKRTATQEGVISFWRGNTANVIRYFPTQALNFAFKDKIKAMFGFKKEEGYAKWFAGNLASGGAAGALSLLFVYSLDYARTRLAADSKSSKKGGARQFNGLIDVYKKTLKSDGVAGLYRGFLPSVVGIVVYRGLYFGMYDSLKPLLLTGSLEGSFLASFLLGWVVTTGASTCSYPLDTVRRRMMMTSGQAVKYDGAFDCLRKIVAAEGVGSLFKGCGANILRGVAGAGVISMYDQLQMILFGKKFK
Sequence of Tom70cd pretreated with N-ethylmaleimide (NEM) (yeast (Saccharomyces cerevisiae)) (P07213 38-617): as the sequence (P07213 38-617) above
Sequence of ADP/ATP carrier (AAC) of Neurospora crassa, wild type (P02723 whole entry): as the sequence (P02723 whole entry, stated change not applied) above

- percent of the total radiolabelled protein bound [1]: 15 to 20%
Substance: AAC_(Δpos) (AAC with all positively charged residues of the matrix loops exchanged against glycine) (from UniProt P02723 1-313) (natural protein)

- reduction of the binding efficiency against untreated Tom70cd [2]: 50%
Substance: ADP/ATP carrier (AAC) of Neurospora crassa, wild type (from UniProt P02723 1-313) (natural protein)

- decrease in binding of [35S]-AAC2 to isolated mitochondria containing wild type Tom70, pretreated with 2 mM NEM against untreated (Fig. 3f) [3]: 50%
Substance: S. cerevisiae AAC2 (from UniProt P18239 1-318) (natural protein)
